Assay results as given in publication PMC5686111.

Target: protein A-derived Z-domain of the mAbSelect SuRe resin
Assay: protein A (Z-domain) affinity chromatography, pH-gradient elution

human IgG1 T307P, L309Q (antibody)
elution pH from the protein A (Z-domain) column: 4.48 pH
